Reference: US6677433B2 (The Regents of the University of California, priority 2001, dated 2004)

Assays:
Format in all cases: biochemical
[1] = system: wheat protease preparation; test: Proteolysis by a plant protease preparation (SDS-PAGE, laser densitometer)
Experimental: The endosperm (10-15 g fresh weight) isolated from 5-day germinated wheat seeds by excising the roots and shoots was extracted for 30 minutes at 4° C. with 5 volumes of 200 mM sodium acetate, pH 4.6, containing 10 mM β-mercaptoenthanol. The homogenate was centrifuged for 20 minutes at 48,000 g, 4° C. The pellet was discarded and the supernatant fluid was fractionated with 30-70% ammonium sulfate. This fraction, which represented the protease preparation, was resuspended in a minimum volume of 20 mM sodium acetate, pH 4.6, containing 10 mM β-mercaptoenthanol, and dialyzed against this buffer overnight at 4° C.
Unless indicated, the reduction of the trypsin inhibitors (0.4 mg/ml) was carried out in 0.1 ml of 20 mM sodium phosphate buffer, pH 7.9 containing 10 mM EDTA at 30° C. for 2 hours. […] Proteolytic products were analyzed by electrophoresis with 12% or 16% SDS polyacrylamide slab gels (Laemmli, 1970). […]
To test whether the reduced forms of KTI and BBTI show decreased stability to proteases other than trypsin, both the reduced and oxidized forms of KTI and BBTI were incubated with a wheat protease preparation or with subtilisin and the proteolytic products were analyzed by SDS-PAGE. The extent of proteolysis was determined by measuring the abundance of intact protein on SDS gels by laser densitometer. […]

glutaredoxin = molecular target: T1, glutaredoxin (Escherichia coli, UniProt P68688); test: Reduction by glutaredoxin relative to thioredoxin (mBBr/SDS-PAGE, densitometric scanning); conditions: glutathione reductase, NADPH
T1 construct: gift of Professor A. Holmgren
T1 sequence (P68688 1-85): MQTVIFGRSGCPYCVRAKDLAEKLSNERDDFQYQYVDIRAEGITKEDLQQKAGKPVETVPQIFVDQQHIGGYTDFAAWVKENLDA
Experimental: Direct reduction of the proteins under study was determined by a modification of the method of Crawford et al. (Crawford, N. A. et al. (1989), Arch. Biochem. Biophys. 271:223-239). The reaction was carried out in 100 mM potassium phosphate buffer, pH 7.1, containing 10 mM EDTA and 16% glycerol in a final volume of 0.1 ml. As indicated, 0.7 μg (0.1 μM) NTR and 1 μg (0.8 μM) thioredoxin (both routinely from E. coli were added to 70 μl of the buffer solution containing 1 mM NADPH and 10 μg (2 to 17 μM) of target protein. When thioredoxin was reduced by dithiothreitol (DTT, 0.5 mM), NADPH and NTR were omitted. Assays with reduced glutathione were performed similarly, but at a final concentration of 1 mM. After incubation for 20 min, 100 nmoles of mBBr were added and the reaction was continued for another 15 min. To stop the reaction and derivatize excess mBBr, 10 μl of 10% SDS and 10 μl of 100 mM β-mercaptoethanol were added and the samples were then applied to the gels. […]
This ability was tested, using glutaredoxin from E. coli and the seed proteins currently under study. Reduction activity was monitored by the mBBr/SDS polyacrylamide gel electrophoresis procedure coupled with densitometric scanning.

trypsin = molecular target: T2, trypsin (Bos taurus, UniProt P00760); test: Heat stability of trypsin inhibitors (trypsin activity, azocasein)
T2 construct: purchased Sigma Chemical Co. (St. Louis, Mo.) T8640
T2 sequence (P00760 24-246): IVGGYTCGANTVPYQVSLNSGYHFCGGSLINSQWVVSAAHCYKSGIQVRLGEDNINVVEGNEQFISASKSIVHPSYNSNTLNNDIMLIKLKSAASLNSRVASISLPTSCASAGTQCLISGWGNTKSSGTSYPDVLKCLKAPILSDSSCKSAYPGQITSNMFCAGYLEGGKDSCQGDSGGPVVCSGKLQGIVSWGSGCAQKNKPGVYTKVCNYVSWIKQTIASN
Experimental: Unless indicated, the reduction of the trypsin inhibitors (0.4 mg/ml) was carried out in 0.1 ml of 20 mM sodium phosphate buffer, pH 7.9 containing 10 mM EDTA at 30° C. for 2 hours. The concentrations of thioredoxin, NTR, and NADPH were 0.024 mg/ml, 0.02 mg/ml, and 0.25 mM, respectively. […] Following reduction, aliquots of the inhibitor mixture were withdrawn either for determination of trypsin inhibitory activity or proteolytic susceptibility. In the subtilisin tests, the inhibitor mixture (50 μl) was directly mixed with subtilisin and incubated at room temperature for 1 hour. With the wheat protease preparation, the pH of the inhibitor mixture (50 μL) was first adjusted to 4.7 by mixing with 35 μl of 200 mM sodium acetate, pH 4.6; 10 μl of the wheat protease preparation was then added and incubation was continued for 2 hours at 37° C. To stop digestion with subtilisin, 2 μl of 100 mM phenylmethylsulfonyl fluoride (PMSF) and 10 μl of 10% SDS were added to the digestion mixture. With the plant protease preparation, digestion was stopped by adding an equal volume of SDS sample buffer [0.125 M Tris-HCl, pH 6.8, 4% (w/v) SDS, 20% (v/v) glycerol, 10% (v/v) β-mercaptoethanol, and 0.02% (w/v) bromophenol blue]. Proteolytic products were analyzed by electrophoresis with 12% or 16% SDS polyacrylamide slab gels (Laemmli, 1970). The dried slab gels were scanned with a laser densitometer (Pharmacia-LKB UltraScan XL) and the peak area of the KTI or BBTI protein band was obtained by integration with a Pharmacia GelScan XL software program.
Thioredoxin and NTR were assayed as previously described by Florencio et al. (1988). Trypsin activity was measured in 50 mM Tris-HCl, pH 7.9, by following the increase in absorbance at 253 nm with N-benzoyl-L-arginine ethyl ester as substrate (Mundy et al., 1984) or by the release of azo dye into the trichloroacetic acid (TCA)-soluble fraction from azocasein substrate (see below). For trypsin inhibition assays, trypsin (5 to 10 μg) was preincubated with appropriate amounts of KTI or BBTI for 5 minutes at room temperature in 50 mM Tris-HCl, pH 7.9 and proteolytic activity was then determined. While the two substrates yielded similar data, results are presented with only one substrate.
The question arises as to whether reduction by thioredoxin yields similar results. The results as shown in TABLE XII provide a positive answer to this question. When heated at 80° C. for 15 minutes, the thioredoxin-reduced form of KTI completely lost its ability to inhibit trypsin, whereas its oxidized counterpart retained about half of the original activity (Table XII). […] Nonetheless, as with KTI, the reduced form of BBTI was fully inactivated by heat (Table XII). […]

B1: Soybean Kunitz: Kunitz soybean trypsin inhibitor (protein, UniProt P01070 25-205, looked up)
Trypsin inhibitor A: DFVLDNEGNPLENGGTYYILSDITAFGGIRAAPTGNERCPLTVVQSRNELDKGIGTIISSPYRIRFIAEGHPLSLKFDSFAVIMLCVGIPTEWSVVEDLPEGPAVKIGENKDAMDGWFRLERVSDDEFNNYKLVFCPQQAEDDKCGDIGISIDHDDGTRRLVVSKNKPLVVQFQKLDKESL
degraded by wheat protease preparation [1]: about 80% | percentage reduction relative to E. coli thioredoxin (glutaredoxin): ineffective | Relative Trypsin Activity, inhibitor heated 15 min at 80° C., Oxidized (trypsin): 52.3 | Relative Trypsin Activity, inhibitor heated 15 min at 80° C., Reduced (trypsin): 98.7 | Relative Trypsin Activity, inhibitor unheated, Reduced (trypsin): 76.4 | Relative Trypsin Activity, inhibitor unheated, Oxidized (trypsin; no inhibitor = 100, azocasein): 26.6
